The values that follow are results of earlier work, collected in paper PMC9760423.

Data set [1] deals with Cdc4 (Saccharomyces cerevisiae) (UniProt P07834).
In the next data set the target is 4E-BP2 (Homo sapiens) (UniProt Q13542).
UniProt Q13542, sequence (Q13542 whole entry): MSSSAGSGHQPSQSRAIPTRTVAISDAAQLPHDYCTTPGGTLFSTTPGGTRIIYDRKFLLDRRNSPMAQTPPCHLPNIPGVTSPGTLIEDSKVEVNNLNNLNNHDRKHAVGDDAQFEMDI

UniProt P07834, sequence (P07834 whole entry): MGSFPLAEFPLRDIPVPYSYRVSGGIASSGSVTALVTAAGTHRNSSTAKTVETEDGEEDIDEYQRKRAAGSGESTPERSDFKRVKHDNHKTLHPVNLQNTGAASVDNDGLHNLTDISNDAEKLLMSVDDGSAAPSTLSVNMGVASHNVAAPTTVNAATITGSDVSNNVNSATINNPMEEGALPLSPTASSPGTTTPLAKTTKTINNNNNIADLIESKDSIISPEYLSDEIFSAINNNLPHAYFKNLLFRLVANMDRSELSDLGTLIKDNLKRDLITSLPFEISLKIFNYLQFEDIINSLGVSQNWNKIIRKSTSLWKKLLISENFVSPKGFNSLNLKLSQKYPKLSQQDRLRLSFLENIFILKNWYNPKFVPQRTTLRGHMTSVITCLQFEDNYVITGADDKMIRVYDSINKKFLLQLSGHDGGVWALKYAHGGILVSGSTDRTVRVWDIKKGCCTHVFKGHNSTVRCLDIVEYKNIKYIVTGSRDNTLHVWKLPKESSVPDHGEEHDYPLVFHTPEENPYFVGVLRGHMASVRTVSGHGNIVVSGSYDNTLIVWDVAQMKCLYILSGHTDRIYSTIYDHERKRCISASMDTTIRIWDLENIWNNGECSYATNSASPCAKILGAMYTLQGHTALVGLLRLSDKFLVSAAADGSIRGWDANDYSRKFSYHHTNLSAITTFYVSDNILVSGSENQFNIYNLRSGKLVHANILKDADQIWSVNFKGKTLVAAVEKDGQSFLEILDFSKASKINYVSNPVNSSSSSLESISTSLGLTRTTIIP

As a reminder, the Kd is the free concentration of one partner at which half of the binding sites on the other are occupied at equilibrium, for simple one-to-one binding. Consider Sic1 (from UniProt P38634), for which, in data set [1], the Kd was 1000 nM.
On to eIF4E (from UniProt P06730), for which the Kd with 4E-BP2 (Homo sapiens) is 3.2 nM.
